Measurements reported in patent CN111072775A (OLYMVAX BIOPHARMACEUTICALS INC; UNIV ARMY MEDICAL, dated 2020).
Where a chain is given by its changes, count along the chain named.

T1: MntC蛋白 (锰离子转运蛋白C亚单位, 重组MntC蛋白) (金黄色葡萄球菌 (Staphylococcus aureus))
T1 construct: Recombinant MntC used as immunogen and as ELISA coating antigen; also called MntC重组蛋白; MntC蛋白标准品
T1 chain: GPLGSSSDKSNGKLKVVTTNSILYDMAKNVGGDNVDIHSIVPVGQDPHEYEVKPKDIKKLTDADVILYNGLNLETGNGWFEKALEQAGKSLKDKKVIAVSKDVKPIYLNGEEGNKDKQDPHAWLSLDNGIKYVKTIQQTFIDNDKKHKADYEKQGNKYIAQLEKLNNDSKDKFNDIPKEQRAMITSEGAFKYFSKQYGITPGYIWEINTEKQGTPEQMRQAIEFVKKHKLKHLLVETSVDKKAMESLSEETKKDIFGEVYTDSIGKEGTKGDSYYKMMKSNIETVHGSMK

B1: HRP标记的抗体3F6 (antibody, V domains shown)
VH: VQLQQSGPSLVKPSQTLSLTCSVTGDSITNGYWNWIRKFPGNKLEYMGYISYSGTTYYNPSLKSRISITRDTSKNQYYLQLNSVTTEDTATYYCSRIRPYRHLGFDYWGQGTTVTVSS
VL: DIVMTQTPASLAVSLGQRATISCKASQSVDYGGDSYMNWYQQKPGQPPKLLIYAASNLESGIPARFSGSGSGTDFTLNIHPVEEEDGATYYCQQSNEDPWTFGGGTKLEIK
modifications: HRP label by the sodium periodate oxidation method; chain and site not stated
notes: also called HRP标记抗体 (3F6)
B2: HRP标记的抗体3C10 (antibody, V domains shown)
VH: B1 VH with Q2K, Q5E
VL: B1 VL with T7S, P8T
modifications: HRP label by the sodium periodate oxidation method; chain and site not stated
notes: also called HRP标记抗体 (3C10); 酶结合物(抗体3C10)

Biological target: T1, MntC蛋白 (锰离子转运蛋白C亚单位, 重组MntC蛋白)
Assay: ELISA on MntC with HRP-labelled antibody

| Binder | binding result |
| --- | --- |
| B1 | binds |
| B2 | binds |
